# What was measured:
# [1] = target: rat brain farnesyl:protein transferase (rat) (UniProt Q04631); test: cell-based or functional assay
# [2] = tested on: biotinylated KTSCVIM
substance,measurement,setting,value
CVIM with glycine at the A2 position (peptide),concentration giving 50% inhibition (farnesyl transfer to p21^H-ras),[1],8 µM
CVIM with glutamic acid at the A2 position (peptide),fold decline of affinity for the enzyme,[1],> 50 fold
CVIM with lysine at the A2 position (peptide),fold decline of affinity for the enzyme,[1],> 50 fold
same,fold decrease of affinity for the enzyme against CVIM,[1],> 30 fold
rat brain farnesyl:protein transferase,farnesylation of the peptide (substrate activity),[2],The studies with the biotinyated heptapeptide ( FIG. 12B ) confirm that at least some of the short peptides act as substrates for the enzyme
